Data published in patent US20130096276A1.

Target: human immunoglobulin G drug separated from human plasma (Gammagard, Baxter) (human)

Q: With C-G29A/D36R.5d (designed binder) as the substance, how does the Ka read?
A: Its Ka is 3e+08 M⁻¹.

Q: C-G29A/K35R/D37E.5d (designed binder) was tested. Which Ka did it give?
A: Its Ka is 6.5e+07 M⁻¹.
